Starred links: 1 amine or outer side, 2 acyl side, 3 side chain; linkers in the order of their positions; H or OH if unused. Positions of bridges follow the written chain, without caps; N, C: chain ends. Non-standard residues stand in square brackets, D forms with d. Primed or numbered codes have the meaning given here. B5(17) = 2,2-bis(4-pentenyl)glycine = 2-amino-2-(pent-4-en-1-yl)hept-6-enoic acid, stitching residue, C=CCCCC(CCCC=C)(N[*:1])C(=O)[*:2]; B5(4) = 2,2-bis(4-pentenyl)glycine = 2-amino-2-(pent-4-en-1-yl)hept-6-enoic acid (stitching residue), C=CCCCC(CCCC=C)(N[*:1])C(=O)[*:2]; B5(6) = 2-amino-2-(pent-4-en-1-yl)hept-6-enoic acid (bis(4-pentenyl)glycine), stitching residue, C=CCCCC(CCCC=C)(N[*:1])C(=O)[*:2]; Phe(3,4-F2) = N[C@@H](Cc1ccc(F)c(F)c1)C(=O)O; Phe(3-F) = N[C@@H](Cc1cccc(F)c1)C(=O)O; Phe(4-F) = N[C@@H](Cc1ccc(F)cc1)C(=O)O; Bta = N[C@@H](Cc1csc2ccccc12)C(=O)O; αAllylPro = C=CC[C@@]1(C(=O)O)CCCN1; 2Pal = N[C@@H](Cc1ccccn1)C(=O)O; 3Pal = N[C@@H](Cc1cccnc1)C(=O)O; S8 = C=CCCCCCC[C@](C)(N)C(=O)O

The values below come from patent publication US20240116985A1 (published 2024).

The target in test [1] is T1, full-length beta-Catenin (Uniprot ID P35222) (Homo sapiens (Human), UniProt P35222 1-781).
T1 construct: Used full-length in the fluorescence polarization probe solution (10 nM); also called bCat; B-Catenin
T1 sequence: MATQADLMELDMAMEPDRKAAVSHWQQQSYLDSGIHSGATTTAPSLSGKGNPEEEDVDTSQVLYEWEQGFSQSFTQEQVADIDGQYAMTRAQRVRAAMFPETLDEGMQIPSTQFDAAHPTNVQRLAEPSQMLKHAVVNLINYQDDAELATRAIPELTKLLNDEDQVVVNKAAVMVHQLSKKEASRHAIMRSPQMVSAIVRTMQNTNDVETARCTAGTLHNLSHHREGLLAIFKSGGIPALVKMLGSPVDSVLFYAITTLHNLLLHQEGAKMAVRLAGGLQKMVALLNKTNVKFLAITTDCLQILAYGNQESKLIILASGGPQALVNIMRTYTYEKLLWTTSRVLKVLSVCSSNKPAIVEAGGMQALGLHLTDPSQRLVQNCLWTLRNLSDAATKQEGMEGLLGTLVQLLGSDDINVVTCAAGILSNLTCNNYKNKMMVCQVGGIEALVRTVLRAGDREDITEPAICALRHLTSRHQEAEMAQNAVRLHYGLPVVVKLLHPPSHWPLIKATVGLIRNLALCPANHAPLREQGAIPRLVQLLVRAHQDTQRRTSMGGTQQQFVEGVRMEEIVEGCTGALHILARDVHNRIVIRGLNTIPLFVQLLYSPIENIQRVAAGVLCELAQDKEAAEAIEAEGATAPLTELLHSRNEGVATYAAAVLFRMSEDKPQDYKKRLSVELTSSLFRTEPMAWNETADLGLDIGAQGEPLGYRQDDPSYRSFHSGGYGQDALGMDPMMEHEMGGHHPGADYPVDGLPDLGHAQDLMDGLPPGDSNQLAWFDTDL
Briefly: fluorescence polarization competition; displacement of 5FAM-TCF4(10-53) from full-length beta-catenin. On the procedure:
(§1) The plate was incubated protected from light for 60 minutes at 20° C. prior to read. Reads were performed on a CLARIOstar plate reader (BMG Labtech) in duplicate, and data were fitted to a 1:1 binding model with hill slope using an in-house script. All provided concentrations are final concentrations.
Background: In fluorescence polarisation assays a small probe gives low polarisation when free and higher when bound to something large.

Test [2] concerns the target T2, full-length beta-Catenin (Uniprot ID P35222) (Homo sapiens (Human), UniProt P35222 1-781).
T2 construct: The assay protocols call it full-length; also called B-Catenin; bCat
T2 sequence: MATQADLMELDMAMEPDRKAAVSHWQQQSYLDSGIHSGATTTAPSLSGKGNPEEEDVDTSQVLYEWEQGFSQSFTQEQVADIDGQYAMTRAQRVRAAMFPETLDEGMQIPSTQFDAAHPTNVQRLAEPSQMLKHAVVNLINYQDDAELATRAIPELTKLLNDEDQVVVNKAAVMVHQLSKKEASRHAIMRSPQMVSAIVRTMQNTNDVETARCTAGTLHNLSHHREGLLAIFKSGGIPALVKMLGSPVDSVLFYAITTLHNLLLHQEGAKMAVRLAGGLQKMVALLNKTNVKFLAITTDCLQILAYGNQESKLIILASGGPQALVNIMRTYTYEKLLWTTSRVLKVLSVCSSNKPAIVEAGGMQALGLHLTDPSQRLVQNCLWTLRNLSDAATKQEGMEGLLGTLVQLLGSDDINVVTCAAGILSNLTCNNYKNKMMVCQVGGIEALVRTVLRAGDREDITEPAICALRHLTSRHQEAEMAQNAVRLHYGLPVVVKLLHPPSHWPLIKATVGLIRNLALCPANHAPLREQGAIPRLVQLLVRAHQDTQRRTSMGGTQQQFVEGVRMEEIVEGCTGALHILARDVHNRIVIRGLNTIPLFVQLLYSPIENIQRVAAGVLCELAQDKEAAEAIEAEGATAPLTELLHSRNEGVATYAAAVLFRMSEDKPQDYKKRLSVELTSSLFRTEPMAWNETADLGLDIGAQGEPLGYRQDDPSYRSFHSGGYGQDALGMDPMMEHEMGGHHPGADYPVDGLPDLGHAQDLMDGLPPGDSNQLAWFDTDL
Put plainly: fluorescence polarization competition; full-length beta-catenin with 5FAM-labelled TCF4 10-53 peptide as competitor. As for the experimental part:
as §1

For test [3], the target named is T2, full-length beta-Catenin (Uniprot ID …). Put plainly: AlphaScreen competition; full-length beta-catenin with biotin-labelled TCF4 10-53 peptide as competitor. On the procedure: Equal volume of the titrated peptide was added to the plate and incubated for 15 minutes at 20° C. Then 4 uL of donor and 4 uL acceptor beads at 10 ug/mL were added to the plate, for a 16 uL reaction pool and protected from light for 60 minutes at 20° C. prior to read. Reads were performed on a CLARIOstar plate reader (BMG Labtech) in duplicate, and data were fitted to a 1:1 binding model with hill slope using an in-house script. All provided concentrations are final concentrations.
For orientation: In Alpha technology, singlet oxygen from a donor bead excites a nearby acceptor bead.

B1: I-472 (peptide)
peptide: Ac-[αAllylPro]DI[B5(6)]DEAAFN[S8]F[Bta]H-NH2
modifications: staple 1-4, 4-11
notes: Stapled peptide composition
On to B1, for which the half-maximal effective concentration (EC50) in test [1] was 62 nM.

B2: I-261 (peptide)
peptide: Ac-[αAllylPro]DA[B5(4)]DDAAFV[S8][Phe(4-F)]WQ-NH2
modifications: staple 1-4, 4-11
notes: Stapled (stitched) peptide; also called Ac-PL3-Asp-Ala-B5-Asp-Asp-Ala-Ala-Phe-Val-S8-4FF-Trp-Gln-NH2
B2: the EC50 in test [2] is 5000 nM; in test [3] it was 347 nM.

B3: I-260 (peptide)
peptide: Ac-[αAllylPro]DA[B5(4)]DDAAFV[S8][Phe(3-F)]WQ-NH2
modifications: staple 1-4, 4-11
notes: Stapled (stitched) peptide; also called Ac-PL3-Asp-Ala-B5-Asp-Asp-Ala-Ala-Phe-Val-S8-3FF-Trp-Gln-NH2
Take B3: the EC50 worked out at 5000 nM in test [2] and 683 nM in test [3].

B4: I-285 (peptide)
peptide: XDAXDDAAFVXHWQ
modifications: not fully specified; N-terminal Ac; PL3 at 1; B5 at 4; S8 at 11; C-terminal NH2; staples PL3(1)-B5(4) and B5(4)-S8(11) by olefin metathesis
notes: Stapled (stitched) peptide; also called Ac-PL3-Asp-Ala-B5-Asp-Asp-Ala-Ala-Phe-Val-S8-His-Trp-Gln-NH2
For the molecule B4, the figures for the EC50 in test [2] and in test [3] were 5000 nM and 246 nM, respectively.

B5: I-286 (peptide)
peptide: XDAXDDAAFAXFWA
modifications: not fully specified; N-terminal Ac; PL3 at 1; B5 at 4; S8 at 11; C-terminal NH2; staples PL3(1)-B5(4) and B5(4)-S8(11) by olefin metathesis
notes: Stapled (stitched) peptide; also called Ac-PL3-Asp-Ala-B5-Asp-Asp-Ala-Ala-Phe-Ala-S8-Phe-Trp-Ala-NH2
Consider B5, for which the EC50 in test [2] was determined as 4480 nM; in test [3], 450 nM.

B6: I-265 (peptide)
peptide: Ac-[αAllylPro]DA[B5(4)]DDAA[Phe(3-F)]V[S8]FWQ-NH2
modifications: staple 1-4, 4-11; not fully specified; printed as Ac-PL3-Asp-Ala-B5-Asp-Asp-Ala-Ala-3FF-Val-S8-Phe-Trp-Gln-NH2
notes: Stapled (stitched) peptide; also called Ac-PL3-Asp-Ala-B5-Asp-Asp-Ala-Ala-3FF-Val-S8-Phe-Trp-Gln-NH2
For B6, the values for the EC50 in test [2] and in test [3] were 3760 nM and 194 nM, respectively.

B7: I-276 (peptide)
peptide: XDAXDDAAFVXXWQ
modifications: not fully specified; N-terminal Ac; PL3 at 1; B5 at 4; S8 at 11; 1NapA at 12; C-terminal NH2; staples PL3(1)-B5(4) and B5(4)-S8(11) by olefin metathesis
notes: Stapled (stitched) peptide; also called Ac-PL3-Asp-Ala-B5-Asp-Asp-Ala-Ala-Phe-Val-S8-1NapA-Trp-Gln-NH2
Regarding B7, the figures for the EC50 in test [2] and in test [3] were 3430 nM and 329 nM, respectively.

B8: I-267 (peptide)
peptide: Ac-[αAllylPro]DA[B5(17)]DDAA[Phe(3,4-F2)]V[S8]FWQ-NH2
modifications: staple 1-4, 4-11
notes: Stapled (stitched) peptide; also called Ac-PL3-Asp-Ala-B5-Asp-Asp-Ala-Ala-34FF-Val-S8-Phe-Trp-Gln-NH2
B8: the concentration for a half-maximal effect (EC50) worked out at 5000 nM in test [2] and 620 nM in test [3].

B9: I-264 (peptide)
peptide: Ac-[αAllylPro]DA[B5(4)]DDAA[Phe(3-F)]V[S8]FWQ-NH2
modifications: staple 1-4, 4-11; not fully specified; printed as Ac-PL3-Asp-Ala-B5-Asp-Asp-Ala-Ala-3FF-Val-S8-Phe-Trp-Gln-NH2
notes: as for B6
In the case of B9, the 50% effective concentration (EC50) in test [2] came out at 5000 nM; in test [3], 364 nM.

B10: I-270 (peptide)
peptide: Ac-[αAllylPro]DA[B5(17)]D[2Pal]AAFV[S8]FWQ-NH2
modifications: staple 1-4, 4-11
notes: Stapled (stitched) peptide; also called Ac-PL3-Asp-Ala-B5-Asp-2PyrA-Ala-Ala-Phe-Val-S8-Phe-Trp-Gln-NH2
Consider B10, for which the EC50 in test [2] stood at 5000 nM; in test [3] it was 835 nM.

B11: I-271 (peptide)
peptide: Ac-[αAllylPro]DA[B5(17)]D[3Pal]AAFV[S8]FWQ-NH2
modifications: staple 1-4, 4-11
notes: Stapled (stitched) peptide; also called Ac-PL3-Asp-Ala-B5-Asp-3PyrA-Ala-Ala-Phe-Val-S8-Phe-Trp-Gln-NH2
As to B11, the EC50 in test [2] came to 5000 nM; in test [3], 788 nM.

B12: I-266 (peptide)
peptide: Ac-[αAllylPro]DA[B5(4)]DDAA[Phe(4-F)]V[S8]FWQ-NH2
modifications: staple 1-4, 4-11
notes: Stapled (stitched) peptide; also called Ac-PL3-Asp-Ala-B5-Asp-Asp-Ala-Ala-4FF-Val-S8-Phe-Trp-Gln-NH2
Take B12: the EC50 in test [2] amounted to 5000 nM; in test [3], 318 nM.

B13: I-290 (peptide)
peptide: XDAXDDAAFVXFW
modifications: not fully specified; N-terminal Ac; PL3 at 1; B5 at 4; S8 at 11; C-terminal NH2; staples PL3(1)-B5(4) and B5(4)-S8(11) by olefin metathesis
notes: Stapled (stitched) peptide; also called Ac-PL3-Asp-Ala-B5-Asp-Asp-Ala-Ala-Phe-Val-S8-Phe-Trp-NH2
On to B13, for which the EC50 in test [2] amounted to 3290 nM; in test [3], 303 nM.

One may read the EC50 as the midpoint of the concentration-response curve. A high value points to a less potent agent.
